This note sets out measurements from the supplement of paper PMC9112550, “Optimization of the antimicrobial peptide Bac7 by deep mutational scanning” (BMC Biology, 2022).

This data set relates to Escherichia coli TOP10. In words: shrunken log2 fold change of peptide-encoding DNA abundance (4.5 h post-induction vs induction); higher = less antimicrobial activity (less host growth inhibition). To be noted: time post-induction: 4.5 h; library: site-saturation at positions 5, 18, 19, 20.
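Also: peptides expressed intracellularly from a pBAD plasmid library in pooled LB shake-flask culture, induced with 0.3% L-arabinose, DNA abundance read by NGS, three biological replicates, DESeq2 with apeglm shrinkage.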

For the sequence RRIRIRPPRLPRPRPRPGHNPRP, the “shrunken log2 fold change” value was -0.0704.

In the case of RRIRQRPPRLPRPRPRPCCWPRP, the “shrunken log2 fold change” value was 0.0955.

In the case of RRIRPRPPRLPRPRPRPERPPRP, the “shrunken log2 fold change” value stood at 0.309.

For the sequence RRIRMRPPRLPRPRPRPQCYPRP, the “shrunken log2 fold change” value was -0.0225.

As for RRIRFRPPRLPRPRPRPFYGPRP, the “shrunken log2 fold change” value is -0.146.

As to RRIRKRPPRLPRPRPRPPWLPRP, the “shrunken log2 fold change” value amounted to 0.574.

For RRIRGRPPRLPRPRPRPQTGPRP, the “shrunken log2 fold change” value is 0.162.

For the sequence RRIRNRPPRLPRPRPRPVLPPRP, the “shrunken log2 fold change” value was -0.11.

Regarding RRIRTRPPRLPRPRPRPSTYPRP, the “shrunken log2 fold change” value was -0.4.

Regarding RRIRDRPPRLPRPRPRPNHRPRP, the “shrunken log2 fold change” value was -0.346.

Regarding RRIRVRPPRLPRPRPRPCGLPRP, the “shrunken log2 fold change” value is -0.173.

For the sequence RRIRSRPPRLPRPRPRPIVDPRP, the “shrunken log2 fold change” value stood at 0.115.

For the sequence RRIRTRPPRLPRPRPRPFCDPRP, the “shrunken log2 fold change” value was -0.268.

RRIRVRPPRLPRPRPRPSLHPRP: the “shrunken log2 fold change” value is -0.415.

Turning to RRIRHRPPRLPRPRPRPFQSPRP, the “shrunken log2 fold change” value is -0.00192.

As for RRIRMRPPRLPRPRPRPIGCPRP, the “shrunken log2 fold change” value amounted to 0.176.

On to RRIRNRPPRLPRPRPRPEQKPRP, for which the “shrunken log2 fold change” value was -0.00208.

For the sequence RRIRIRPPRLPRPRPRPLSSPRP, the “shrunken log2 fold change” value is -0.143.

In the case of RRIRNRPPRLPRPRPRPNMHPRP, the “shrunken log2 fold change” value was -0.433.

Turning to RRIRYRPPRLPRPRPRPIAKPRP, the “shrunken log2 fold change” value is 0.0673.

For RRIRFRPPRLPRPRPRPQFQPRP, the “shrunken log2 fold change” value was determined as 0.0151.

As for RRIRQRPPRLPRPRPRPDTRPRP, the “shrunken log2 fold change” value was determined as 0.00157.

With RRIRSRPPRLPRPRPRPRMLPRP, the “shrunken log2 fold change” value was -0.214.

Turning to RRIRFRPPRLPRPRPRPTGIPRP, the “shrunken log2 fold change” value is -0.26.

Consider RRIRYRPPRLPRPRPRPDMHPRP, for which the “shrunken log2 fold change” value is -0.231.

As to RRIRCRPPRLPRPRPRPHARPRP, the “shrunken log2 fold change” value was found to be 0.204.

In the case of RRIRGRPPRLPRPRPRPMHYPRP, the “shrunken log2 fold change” value was -0.165.

In the case of RRIRIRPPRLPRPRPRPLAYPRP, the “shrunken log2 fold change” value is -0.132.

Turning to RRIRWRPPRLPRPRPRPQNKPRP, the “shrunken log2 fold change” value was -0.536.

RRIRQRPPRLPRPRPRPKLTPRP: the “shrunken log2 fold change” value was -0.0707.

RRIRARPPRLPRPRPRPFQKPRP: the “shrunken log2 fold change” value came to 0.121.

Consider RRIRSRPPRLPRPRPRPWAMPRP, for which the “shrunken log2 fold change” value was 0.0981.

For the sequence RRIRMRPPRLPRPRPRPAMYPRP, the “shrunken log2 fold change” value worked out at 2.95.

For RRIRVRPPRLPRPRPRPLHEPRP, the “shrunken log2 fold change” value is -0.0936.

With RRIRMRPPRLPRPRPRPAYNPRP, the “shrunken log2 fold change” value was -0.236.

RRIRSRPPRLPRPRPRPHCEPRP: the “shrunken log2 fold change” value is -0.0301.

With RRIRGRPPRLPRPRPRPWREPRP, the “shrunken log2 fold change” value is 0.599.

Regarding RRIRWRPPRLPRPRPRPWDQPRP, the “shrunken log2 fold change” value is 0.00408.

Take RRIRERPPRLPRPRPRPQNTPRP: the “shrunken log2 fold change” value is -0.497.

Regarding RRIRARPPRLPRPRPRPESMPRP, the “shrunken log2 fold change” value worked out at 0.77.

For the sequence RRIRIRPPRLPRPRPRPWNVPRP, the “shrunken log2 fold change” value is -0.00149.

RRIRQRPPRLPRPRPRPSLDPRP: the “shrunken log2 fold change” value is -0.222.

As for RRIRGRPPRLPRPRPRPDMAPRP, the “shrunken log2 fold change” value is 0.882.

As to RRIRSRPPRLPRPRPRPYLPPRP, the “shrunken log2 fold change” value is -0.552.

Regarding RRIRNRPPRLPRPRPRPIENPRP, the “shrunken log2 fold change” value is 0.0211.

For the sequence RRIRMRPPRLPRPRPRPWCCPRP, the “shrunken log2 fold change” value stood at 0.0172.

Consider RRIRDRPPRLPRPRPRPHWYPRP, for which the “shrunken log2 fold change” value is -0.212.

RRIRWRPPRLPRPRPRPCCVPRP: the “shrunken log2 fold change” value is -0.134.

As for RRIRLRPPRLPRPRPRPFDEPRP, the “shrunken log2 fold change” value is 0.0466.

RRIRPRPPRLPRPRPRPIDDPRP: the “shrunken log2 fold change” value is 0.00554.

Take RRIRTRPPRLPRPRPRPANNPRP: the “shrunken log2 fold change” value is -0.736.

For the sequence RRIRYRPPRLPRPRPRPFSFPRP, the “shrunken log2 fold change” value was -0.35.

As for RRIRWRPPRLPRPRPRPVVTPRP, the “shrunken log2 fold change” value turned out to be 0.338.

RRIRARPPRLPRPRPRPDCEPRP: the “shrunken log2 fold change” value is 1.

As for RRIRYRPPRLPRPRPRPQLPPRP, the “shrunken log2 fold change” value is -0.0333.

RRIRPRPPRLPRPRPRPANGPRP: the “shrunken log2 fold change” value worked out at 0.0748.

In the case of RRIRLRPPRLPRPRPRPVGGPRP, the “shrunken log2 fold change” value amounted to 0.516.

Regarding RRIRKRPPRLPRPRPRPIMVPRP, the “shrunken log2 fold change” value was 0.248.

With RRIRHRPPRLPRPRPRPRHVPRP, the “shrunken log2 fold change” value was -0.324.

For RRIRGRPPRLPRPRPRPFWFPRP, the “shrunken log2 fold change” value was found to be 0.283.

Take RRIRWRPPRLPRPRPRPTAYPRP: the “shrunken log2 fold change” value amounted to 0.0204.

For RRIRCRPPRLPRPRPRPWHPPRP, the “shrunken log2 fold change” value is -0.0323.

For RRIRARPPRLPRPRPRPADAPRP, the “shrunken log2 fold change” value came to 0.473.

As for RRIRNRPPRLPRPRPRPQHLPRP, the “shrunken log2 fold change” value was -0.517.

Regarding RRIRSRPPRLPRPRPRPWNSPRP, the “shrunken log2 fold change” value was -0.19.

For RRIRCRPPRLPRPRPRPKLLPRP, the “shrunken log2 fold change” value is -0.172.

For RRIRYRPPRLPRPRPRPIGRPRP, the “shrunken log2 fold change” value was -0.0417.

Regarding RRIRLRPPRLPRPRPRPTCEPRP, the “shrunken log2 fold change” value came to 0.497.

Turning to RRIRIRPPRLPRPRPRPQPEPRP, the “shrunken log2 fold change” value stood at 0.0576.

For RRIRKRPPRLPRPRPRPAQVPRP, the “shrunken log2 fold change” value came to 0.296.

In the case of RRIRERPPRLPRPRPRPIWTPRP, the “shrunken log2 fold change” value is -0.0563.

Regarding RRIRKRPPRLPRPRPRPTRIPRP, the “shrunken log2 fold change” value was 0.312.

With RRIRFRPPRLPRPRPRPNLWPRP, the “shrunken log2 fold change” value was 0.031.

In the case of RRIRIRPPRLPRPRPRPQSSPRP, the “shrunken log2 fold change” value amounted to 0.00983.

RRIRTRPPRLPRPRPRPFCLPRP: the “shrunken log2 fold change” value was -0.278.

As for RRIRHRPPRLPRPRPRPQPWPRP, the “shrunken log2 fold change” value worked out at 0.0549.

Take RRIRWRPPRLPRPRPRPPIGPRP: the “shrunken log2 fold change” value is 0.324.

Turning to RRIRTRPPRLPRPRPRPLHCPRP, the “shrunken log2 fold change” value is -0.148.

For RRIRPRPPRLPRPRPRPGTIPRP, the “shrunken log2 fold change” value is -0.171.

For the sequence RRIRIRPPRLPRPRPRPNSDPRP, the “shrunken log2 fold change” value is -0.267.

For RRIRHRPPRLPRPRPRPMPFPRP, the “shrunken log2 fold change” value amounted to 0.0462.

On to RRIRPRPPRLPRPRPRPEPVPRP, for which the “shrunken log2 fold change” value came to 0.12.

Consider RRIRLRPPRLPRPRPRPACLPRP, for which the “shrunken log2 fold change” value was 0.00436.

Consider RRIRLRPPRLPRPRPRPGAGPRP, for which the “shrunken log2 fold change” value was found to be 0.448.

As for RRIRSRPPRLPRPRPRPCGVPRP, the “shrunken log2 fold change” value amounted to 0.0491.

With RRIRKRPPRLPRPRPRPSSQPRP, the “shrunken log2 fold change” value came out at 0.0821.

RRIRYRPPRLPRPRPRPCGKPRP: the “shrunken log2 fold change” value is -0.0542.

For the sequence RRIRRRPPRLPRPRPRPSNDPRP, the “shrunken log2 fold change” value is -0.162.

For RRIRKRPPRLPRPRPRPDPAPRP, the “shrunken log2 fold change” value came out at 0.688.

With RRIRMRPPRLPRPRPRPREAPRP, the “shrunken log2 fold change” value was 1.82.

As to RRIRIRPPRLPRPRPRPQGSPRP, the “shrunken log2 fold change” value was -0.0316.
